Experimental data reported in US10758588 (PURDUE RESEARCH FOUNDATION, dated 2020).
* marks the point of attachment. 5FAM = O=C1OC2(c3ccc(O)cc3Oc3cc(O)ccc32)c2ccc(C(=O)*)cc21; Ahx = NCCCCCC(=O)O

Target: T1, N-terminal His-tag PCNA (recombinant (His)6-PCNA fusion protein; Proliferating Cell Nuclear Antigen) (Homo sapiens (Human), UniProt P12004 1-261)
T1 construct: Expressed in E. coli BL21 (DE3) from vector pEV-L8, which carries an N-terminal His-tag and a TEV protease site; No tag cleavage is described; also called His-tagged PCNA; recombinant PCNA
T1 sequence (P12004 other isoform, or with tags, fused parts or gaps limits assumed): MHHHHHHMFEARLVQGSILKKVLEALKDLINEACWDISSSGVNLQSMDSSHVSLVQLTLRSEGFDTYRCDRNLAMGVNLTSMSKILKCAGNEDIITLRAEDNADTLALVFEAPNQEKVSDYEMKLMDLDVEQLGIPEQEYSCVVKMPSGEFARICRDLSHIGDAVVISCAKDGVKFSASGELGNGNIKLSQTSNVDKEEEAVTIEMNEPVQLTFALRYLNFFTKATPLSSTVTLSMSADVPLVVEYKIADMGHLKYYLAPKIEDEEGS
Assay: fluorescence polarization; fixed FAM-PL (5 nM) titrated with two-fold increasing recombinant His-tagged PCNA
Excerpt: [a]N-substituted side chains listed from N-terminus to most C-terminal [b]as determined by high resolution electrospray ionization or MALDI-TOF [c]based on dry mass recovery after HPLC purification After synthesis and purification, peptoids were screened in a fluorescence polarization (FP) assay to find ligands that disrupted the interaction between His-tagged PCNA and fluorescein-labeled Pogo Ligase peptide (FAM-PL) (Kontopidis, G., et al. Proc. Natl. Acad. Sci. U.S.A. 2005, 102 (6), 1871-1876). In the design of the assay, conditions were adopted from Pedley et al., 2016, to improve the dynamic range between bound and unbound FAM-PL. While an acceptable Z-score was determined using the original 10 nM peptide and 100 nM PCNA (FIG. 4), an improved dynamic range was established by adjusting the ligand and receptor concentrations. […]
Increasing amounts of recombinant (His)_6-PCNA protein (SEQ ID NO: 3) were prepared in FP binding buffer (25 mM HEPES at pH 7.4, 10% glycerol, 0.01% Triton X-100), with an 11-step 2-fold dilution series, and a top concentration of 30 μM. […] Fluorescence polarization and resultant anisotropy were measured on a BioTek Synergy 4 Multi-Detection Microplate Reader using an excitation filter of 485 nm and an emission filter of 530 nm, each with a 20 nm band-pass.

Kd: 107 nM
B1: 5-FAM-labeled POGO ligase peptide (FAM-PL) (peptide)
peptide: {5FAM-Ahx}-SAVLQKKITDYFHPKK-NH2
notes: also called fluorescein-labeled Pogo Ligase peptide; PL peptide
